Substitutions are numbered along the chain they refer to.
T1: HCV bt-141-161 (Peptide 2, HCVc 141-161) (Hepatitis C virus (numbering per HCV-1), biotin (carboxy-terminal per; N-terminal per))
T1 peptide: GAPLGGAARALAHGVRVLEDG

T2: HCV bt-134-154 (Peptide 1, HCVc 134-154) (Hepatitis C virus (numbering per HCV-1), biotin (carboxy-terminal per; N-terminal per))
T2 peptide: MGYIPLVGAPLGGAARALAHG

T3: HCV bt-151-171 (Peptide 3, HCVc 151-171) (Hepatitis C virus (numbering per HCV-1), biotin (carboxy-terminal per; N-terminal per))
T3 peptide: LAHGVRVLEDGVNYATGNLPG

B1: HCV 208A-422 (antibody, V domains shown)
VH: DVQLQESGPGLVNPSQSLSLTCSVTGYSITSGYYWIWIQQSPGNKLEWMGYIKYDGGNNYSPSLKNRISIARDTSKNQCFLKLNSVTIEDTATYYCTRGSDSFDYWGQGTTLTVSS
VL: DIVLTQSPASLAVSLGQRAIISCKASQSVSFAGTNLMHWYQQKPGQQPKLLIYRASNLETGVPTRFSGSGSRTDFTLNIHPVEEDDAATYYCQQSREYYTFGGGTKLEIKR
B2: HCV 208A-442 (antibody, V domains shown)
VH: B1 VH with Q39R, S41F, C79F
VL: B1 VL
B3: HCV 208A-877 (antibody, V domains shown)
VH: QLQQSGPELVKPGASVKISCKTSGYTFTENAMHWVKQSRGKSLEWIGGVNPNNGDTVYTQKFKGKATLTVAKSSSTAYMELRTMTCEESTVYYCASREPDFFDYWGQGSSVTVSS
VL: QIVLTQSPAIMSVSPGEKVSMTCSASSSVTYMHWYQQKSGTSPKRWIYDTSELASGVPARFSGSGSGTTYSLTISSMEAEDAATYYCQQWSNKPLTFGAGTKLELKR
B4: HCV 208A-983 (antibody, V domains shown)
VH: QGQMQQSGAELVKPGASVKLSCKTSGFTFSSSYFSWLKQKPGQSLEWIAWIYAGTGNTIYNQKFTDKAQLTVDTASSTAFMQLSSLTIEDSAIYYCAISGTGFTYWGQGTLVTVSA
VL: DVLMTQTPLSLPVNLGDQASISCRSSQSLLHSNGNTYLEWFLQKPGQSPKLLIYNVSNRFSGVPDRFSGSGSGTDFTLKISRVEAEDLGVYYCFQGSHVPFTFGSGTKLAIKR
B5: HCV 208B-1024 (antibody, V domains shown)
VH: EVQLVESGGDLVKPGGSLKLSCAASGFTFSNYGMSWVRQTPDKRLEWVATISSGGSYSYYPDSVKGRFTISRDNAKNILYLQMSSLKSEDTAMYYCASLYYGYGDYWGQGTAFTVSS
VL: B4 VL with N14S, L29I, L30V, F41Y, P45L, N55R, F101W, S105G, A110E
B6: HCV 208A-557 (antibody, V domains shown)
VH: B4 VH with F34I, I59N, A75S, F80Y, I88T
VL: DIALTQSPASLAVSLGQRATISCRASQSVSTSRYSYMHWYQQKPGQPPELLIKYASNLESGVPARFSGSGSGTDFTLNIHPVGEEDTATYYCQHSWDFPFTFGSGTKLEIKR
B7: HCV 208A-134 (antibody, V domains shown)
VH: B4 VH with V12A, F34I, I59N, A75S, F80Y, I88T
VL: B4 VL with D1E, T7S, N14S, L30E, S32T, K44R, S48P, N55K, N58S
B8: HCV 208B-281 (antibody, V domains shown)
VH: B4 VH with M4L, F34I, K40R, N57G, I59N, A75S, F80Y, L83F, I88T, T104I
VL: B4 VL with N14S, L30V, S32N, N55K, A110E
B9: HCV 208B-174 (antibody, V domains shown)
VH: EVKLEESGGGLVQPGGSMKLSCVASGFSFSSYWMSWVRQSPEKGLDWVAEIRLRSDNYATHYAESVKGRFTISRDDSISRLYLQMNTLRAEDTGIYYCTWMTYWGQGTLVTVSA
VL: QNVLTQSPAIMSASPGEKVTMSCSASSSVTYMFWYQLKPESSPRLLIYDTSNLASGVPVRFSGSGSGTSYSLTISRMEAEDAATYYCQEWSSYPLTFGAGTKLDLKR
B10: HCV 208A-874 (antibody, V domains shown)
VH: QVQLQQPGAELVKPGASVKLSCKASGYTLSSYWMHWVKQRPGQGLEWIGEIHPSDSYTSYNQKFKDKATLTVDKSSSTAYMQLSSLTSEDSAVYYCARGGYYRYDEFAYWGQGTLVTVSA
VL: DIVMTQSHKFMSTSIGDRVSITCKASQNVSPAVAWYQQKPGQSPKLLIYSASSRYTGVPDRFTGSGSGTAFTFTISSVQAEDLAVYFCQQHFSTPWTFGGGTMLEIKR
B11: HCV 208B-589 (antibody, V domains shown)
VH: QVQLQQSGAGLAKPGASVKMSCKASGYTFTANKMHWAKQRPGQGLEWIGYIDPSSGYTEYNHKIQDKATLTADTSSSTAYMQLSSLTFEDSAVYYCTNFAYWGQGTLVTVSA
VL: DIVMTQTPLTLSVTIGQPASISCKSSQSLLFTNGKTYLNWFLQRPGQSPKRLIYLLSKLDSGVPDRFSGSGSGTDFTLKISRVEAEDLGVYYCLQSTYFPLTFGAGTKLELKR
B12: HCV 208B-560 (antibody, V domains shown)
VH: EVQLQQSGPELEKPGASVKISCKTSGYTFTEYAMHWVKQSHGMSLEWIGGINPSNGNAIYNQIFKDKATLTVDRSSSTAYMGLRSLTFGDSGVYFCVRRQLDFFDYWGQGASLTVSS
VL: B6 VL with A3V, L4V, M37L, E49K, D97E
B13: HCV 208A-830 (antibody, V domains shown)
VH: EVRLQQPGPEVEKPGASVKISCKTSGYTFTEYAIHWVKQSHGESLEWIGGINPSNGDPIYNQIFKDKATLTVDRSSNTAYMGLRSLTVGDSGVYFCVRRQLDYFDFWGQGASLTVSS
VL: B6 VL with A3V, A25S, M37L, E49K, T87P, D97E
B14: HCV 208A-222 (antibody, V domains shown)
VH: B12 VH with K19R, M43K, S54N, F103Y
VL: B6 VL with A3V, L4V, M37L, E49K, D97E
B15: HCV 208A-605 (antibody, V domains shown)
VH: B12 VH with M34I
VL: B6 VL with A3V, L4V, M37L, E49K, D97E
B16: HCV 208A-638 (antibody, V domains shown)
VH: QGQLQQPGAEFVKPGASLKLSCRASGYTFTSYWIHWVKQRPGQGLEWIGEVDPSDSYINQNEKFRGKATLTVDKSSSTAYMQLGSLTSEDSAVYYCARHYYGVLDSWGQGTALTVSS
VL: QIVLTQSPTIMSASLGERVTMTCTASSSVSSSYLHWFQQKPGSSPKLWIYSTSNLASGVPPRFSGSGSGTSYSLSISSVEAEDVATYYCLQFHRSPWTFGGGAKLEIKR

Target: T1, HCV bt-141-161 (Peptide 2, HCVc 141-161)
Assay: EIA, captured mAb + biotin peptide

Binder	Reactivity (OD 492 nm) [OD units]
B1	0.84
B2	3.04
B3	1.21
B4	0.4
B5	0.75
B6	2.41
B7	0.08
B8	0.16
B9	1.26
B10	0.73
B11	0.1
B12	3.9
B13	2.88
B14	2.7
B15	3.71
B16	2.96

Target: T2, HCV bt-134-154 (Peptide 1, HCVc 134-154)
Assay: EIA, captured mAb + biotin peptide

Binder	Reactivity (OD 492 nm) [OD units]
B1	0.05
B2	0.08
B3	0.06
B4	3.03
B5	0.08
B6	0.05
B7	2.06
B8	1.48
B9	0.08
B10	0.05
B11	0.27
B12	0.11
B13	0.07
B14	0.06
B15	0.22
B16	0.07

Target: T3, HCV bt-151-171 (Peptide 3, HCVc 151-171)
Assay: EIA, captured mAb + biotin peptide

Binder	Reactivity (OD 492 nm) [OD units]
B1	0.1
B2	0.06
B3	0.05
B4	0.05
B5	0.15
B6	0.06
B7	0.06
B8	0.12
B9	0.07
B10	0.06
B11	2.85
B12	0.14
B13	0.08
B14	0.08
B15	0.16
B16	0.09

Source: patent US20170052184A1 (published 2017)
